Assay results from publication PMC3644210 (Biochemical pharmacology, 2012).
Ends that are not written are not given here.

Key:
Kv1.1 = Kv1.1 (Homo sapiens, UniProt Q09470); type: cell-based
[1] = comparison value; source not explicitly stated; cited from earlier work
Kv1.5 (wildtype) = Kv1.5 (wildtype) (UniProt P22460)
Kv1.1 E353T = Kv1.1 E353T (UniProt Q09470)
Kv1.1 Y379V = Kv1.1 Y379V (UniProt Q09470)
Kv1.5 R487T = Kv1.5 R487T (UniProt P22460)
Sequence of Kv1.5 R487T (P22460 whole entry R487T): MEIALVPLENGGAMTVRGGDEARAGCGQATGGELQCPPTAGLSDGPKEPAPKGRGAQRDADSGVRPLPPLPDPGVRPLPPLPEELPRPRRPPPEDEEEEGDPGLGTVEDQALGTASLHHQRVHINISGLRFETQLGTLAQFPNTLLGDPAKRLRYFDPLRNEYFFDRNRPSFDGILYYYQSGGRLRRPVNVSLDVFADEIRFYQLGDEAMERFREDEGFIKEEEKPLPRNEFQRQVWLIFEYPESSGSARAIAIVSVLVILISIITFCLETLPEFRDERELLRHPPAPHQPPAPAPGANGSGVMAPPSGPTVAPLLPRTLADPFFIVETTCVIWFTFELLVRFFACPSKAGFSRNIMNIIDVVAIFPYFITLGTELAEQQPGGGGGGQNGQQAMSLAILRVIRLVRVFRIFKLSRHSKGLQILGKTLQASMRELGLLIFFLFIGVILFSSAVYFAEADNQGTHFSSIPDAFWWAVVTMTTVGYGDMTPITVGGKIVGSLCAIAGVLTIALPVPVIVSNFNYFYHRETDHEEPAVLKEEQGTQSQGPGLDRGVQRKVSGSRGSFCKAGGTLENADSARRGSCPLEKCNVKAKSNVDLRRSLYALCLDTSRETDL

Sequence of Kv1.1 (Q09470 whole entry): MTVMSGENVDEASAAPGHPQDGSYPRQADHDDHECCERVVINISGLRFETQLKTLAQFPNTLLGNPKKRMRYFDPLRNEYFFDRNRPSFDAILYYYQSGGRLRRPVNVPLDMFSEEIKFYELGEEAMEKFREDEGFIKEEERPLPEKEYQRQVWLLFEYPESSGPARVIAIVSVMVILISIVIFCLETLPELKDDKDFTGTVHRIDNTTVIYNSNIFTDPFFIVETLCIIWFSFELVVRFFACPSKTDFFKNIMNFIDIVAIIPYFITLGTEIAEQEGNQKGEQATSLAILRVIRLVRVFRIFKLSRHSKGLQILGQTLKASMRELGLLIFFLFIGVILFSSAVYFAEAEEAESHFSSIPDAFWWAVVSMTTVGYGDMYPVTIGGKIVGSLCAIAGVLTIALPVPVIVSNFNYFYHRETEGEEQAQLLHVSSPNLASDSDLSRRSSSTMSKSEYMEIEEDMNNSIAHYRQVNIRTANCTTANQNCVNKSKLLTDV
Sequence of Kv1.1 Y379V (Q09470 whole entry Y379V): as the sequence (Q09470 whole entry) above, with Y379V counted along it
Sequence of Kv1.1 E353T (Q09470 whole entry E353T): as the sequence (Q09470 whole entry) above, with E353T counted along it
Sequence of Kv1.5 (wildtype) (P22460 whole entry): as the sequence (P22460 whole entry R487T) above, with T487R counted along it

## CC[N+](CC)(CC)CC [TEA, Tetraethylammonium]
Kv1.1; 0.4 mM TEA, n = 6, 250-ms steps to +10 mV
  reduction of the K+ current by TEA: 55 ± 2%
Kv1.1; read-out: IC50 of TEA on Kv1.1, Kv1.1, source of the IC50 not stated
  IC50: 400 µM

## OcyC8: κ-KTx2 scorpion toxin from Opisthacanthus cayaporum (YDACVNACLEHHPNVRECEEACKNPVPP; UniProt P86110 43-70, looked up)
[1]
  pI of OcyC8: 4.92

## SCKKECSGSRRTKKCMQKCNREHGH-NH2 (ends and bridges not checked) [Hl15-1-1 (Heterometrus laoticus toxin)]
Kv1.5 (wildtype)
  percent inhibition of the K+ current by 30 μM Hl15-1-1 (whole-cell patch clamp): 1%
Kv1.1 E353T
  percent inhibition of the K+ efflux by 30 μM Hl15-1-1 (whole-cell patch clamp): 32%
Kv1.1 Y379V
  percent inhibition of the K+ efflux by 30 μM Hl15-1-1 (whole-cell patch clamp): 6.1%
Kv1.5 R487T
  percent inhibition of the K+ current by 30 μM Hl15-1-1 (whole-cell patch clamp): 26.3%
